Laboratory results reported in patent publication US20240190986A1.

Tests used:
[1] = biological target: Negative control (amino acid sequence shown in SEQ ID NO: 2 in CN106046152A); experiment: ELISA, negative control well, TG1 supernatant
MSLN·His protein (human) = MSLN·His protein (human) (UniProt Q13421); experiment: SPR (Biacore), antibody captured on protein A, MSLN·His as analyte
[2] = biological target: MSLN on SKOV3 and Aspc-1 tumor cells (UniProt Q13421); experiment: flow cytometry on Aspc-1 tumor cells, anti-human IgG PE secondary, fitted curve
Sequence of MSLN on SKOV3 and Aspc-1 tumor cells (Q13421 other isoform, or with tags, fused parts or gaps limits assumed): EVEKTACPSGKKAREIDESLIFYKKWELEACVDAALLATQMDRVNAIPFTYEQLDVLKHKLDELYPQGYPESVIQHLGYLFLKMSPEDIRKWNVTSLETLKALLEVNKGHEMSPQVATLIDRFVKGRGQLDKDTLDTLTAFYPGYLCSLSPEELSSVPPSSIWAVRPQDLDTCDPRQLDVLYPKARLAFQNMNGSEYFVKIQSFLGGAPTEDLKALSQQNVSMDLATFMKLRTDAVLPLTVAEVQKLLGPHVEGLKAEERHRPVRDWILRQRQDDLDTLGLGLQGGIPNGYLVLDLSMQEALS

[3] = biological target: MSLN on SKOV3 and Aspc-1 tumor cells (UniProt Q13421); experiment: flow cytometry on SKOV3 tumor cells, anti-human IgG PE secondary, fitted curve
[4] = biological target: segment III of MSLN expressed on HEK293T cells (UniProt Q13421); experiment: flow cytometry on HEK293T cells expressing MSLN segment III, anti-human IgG PE secondary, fitted curve
Sequence of segment III of MSLN expressed on HEK293T cells (Q13421 495-606 limits assumed): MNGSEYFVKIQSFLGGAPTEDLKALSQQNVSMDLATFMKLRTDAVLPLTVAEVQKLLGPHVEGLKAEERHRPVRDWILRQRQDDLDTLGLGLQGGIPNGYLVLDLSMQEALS

Sequence of MSLN·His protein (human) (Q13421 other isoform, or with tags, fused parts or gaps limits assumed): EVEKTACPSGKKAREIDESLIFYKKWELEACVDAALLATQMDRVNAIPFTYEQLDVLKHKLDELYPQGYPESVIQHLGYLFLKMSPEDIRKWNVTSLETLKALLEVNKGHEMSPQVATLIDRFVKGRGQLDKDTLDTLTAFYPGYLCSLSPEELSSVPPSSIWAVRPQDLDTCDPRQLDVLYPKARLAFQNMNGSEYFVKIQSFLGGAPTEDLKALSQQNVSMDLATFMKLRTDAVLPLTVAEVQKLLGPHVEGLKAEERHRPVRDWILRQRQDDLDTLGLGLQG

| Binder | ELISA (OD450) [1] [OD450] | other results |
| --- | --- | --- |
| M005 (VHH) VHH: EVQLVESGGGWVQSGGSLRLACAASGSSFGLNVVGWYRQAPDKQRELVASIGNGGRTTDYADSVKGRFTISSDNAKNTVFLQMNDLKPEDTAVYYCHLRASVTKGYWGQGTQVTVSS | 0.0072 | – |
| M126 (VHH) VHH: EVQLVESGGGWVQSGGSLRLACAASGDSFGLNVVGWYRLAPDKQRELVASIGNGGRTTDYADSVKGRFTISSDNAKNTVFLQMNDLKPEDTAMYYCHLRVSVTEGYWGQGTQVTVSS | 0.0068 | – |
| M197 (VHH) VHH: EVQLVESGGGLVQAGGSLRLSCAASGSHFGLNVVGWYRQAPGKQRELVASIGNSGRTTDYADSVKGRFTISKDNAQNTIYLQMNNLKPEDTAMYRCHLRVSVERGYWGQGTQVTVSS | 0.0074 | – |
| M129 (VHH) VHH: QVQLVESGGGSAQAGGSLILSCVASANLFTIDALGWYRQAPGPKRELVAAISSGGNKYYADAVKGRFTISRDTLTKTMWLQMNNLKPEDTAMYYCAAEDYGLGQRSWGMGTQVTVSS | 0.007 | – |
| M118 (VHH) VHH: EVQLVESGGGLVQAGGSLTLSCAASEHTFTIDAMGYYRQIPGRRNERQLVAAAGRTGTTYYNDAVKDRFTIYRDTSKETIILQMNNLRPEDTTMYYCAVERYSDQSRFFGPGTQVTVSS | 0.0074 | – |
| M2339-z1-1 (antibody, part only; not given: constant region, IgG4, part only) heavy, part: QLQLGASGGGLVQPGGSLRLSCALSGFTLRELDEFAIGWFRQAPGKEREGVSCISGTGGITHYADSVKGRFTISRDIAKNTVYLQMNSLNSEDTAVYYCAADERCTDRLIRPPTYWGQGTQVTVSS | – | Kd (MSLN·His protein (human)): 2270 nM; koff (MSLN·His protein (human)): 0.000739 s⁻¹; kon (MSLN·His protein (human)): 326 M⁻¹ s⁻¹ |
| M2339 (VHH) VHH: QLQLGASGGGLVQPGGSLRLSCALSGFTLRELDEFAIGWFRQAPGKEREGVSCISGTGGITHYADSVKGRFTISRDIAKTTVYLQMNSLNSEDTAVYYCAADERCTDRLIRPPTYWGQGTQVTVSS | 0.0479 | – |
| M047 (VHH) VHH: QVQLVETGGGSVQAGGSLRLSCAASGSIASIDAMGWYRQVPGKEWERELVATISSSNSDNKYYKDSVKGRFTISTNIAKNTWYLQMNNLKPEDTAMYYCAAEDYDTKDRFWGQGTQVTVSS | 0.018 | – |
| M004 (VHH) VHH: EVQLVESGGGLVQAGGSLRLSCAASESISSIAYMGWYRRISEKERNLVATISSTGSTYYADSVKGRFTISRDNAKNTMYLQMNRLKPEDTAIYYCAASNKAYNDYDPDWGQGTQVTVSS | 0.0085 | – |
| M182 (VHH) VHH: QVQLVESGGGSVQAGGSLTLSCAASGAVSSINAMGWYRQTPEKVRQLVATMGSGGNTYYAASVKGRFTISRDYAKNTVALQMNHLLPEDTAVYYCAADRFGADIREVDYWGKGTQVTVSS | 0.0075 | – |
| M169 (VHH) VHH: EVQLVESGGGTVQPGESLRLSCEASGAVSTINAMGWYRQTPEMRKLVATMGSGGNTYYADSVKGRFTISRDFAGNTVDLQMNDLKPEDTGVYFCAADKFGADIKEVAYWGKGTLVTVSS | 0.007 | – |
| M210 (VHH) VHH: QVQLVESGGGLVQPGGSLRLSCAASGITLDNYAIAWFRQAPGKKREGVSCISSNGNTYYQPSVKGRFTIARDNAKNTVYLHMNNLNPEDTAVYYCQVGQFSSSTTPVQAMSVMSLYADWGQGTQVTVSS | 0.0071 | – |
| M032 (VHH) VHH: EVQLVESGGGSVQAGGSLKISCAASGSVIDIGAMGWYRHITEKERKLVATINAGGNTYYADSVKGRFTISRDNAKYTVYLQMNSLKPEDTAMYYCAAEDINYTGTEAYYWGQGTQVTVSS | 0.0076 | – |
| M344 (VHH) VHH: QVQLVESGGGLVQSGGSLRLSCVASGSAFSFDAMGWYRQFSATRRERQLVVATSRDGRTYYADSVKGRFTATRDNSKNSLYLEMNSLKPEDTAIYYCAAGDDPKNYSWGQGTQVTVSS | 0.0082 | – |
| M156 (VHH) VHH: QVQLVESGGGLVQAGGSLRLSCAVSGISFEYYAIGWFRQAPGKEREAVSCTTSGTTSGGGVTDYADSLKGRFTISRDVAKNTVYLQMNNLTPEDTAVYYCAADIHCRGYVLFVPSDFGNWGQGTQVTVSS | 0.0074 | – |
| M012 (VHH) VHH: QVQLVESGGDLVQTGGSLRLSCVVSGSTFAINAMGWYRQAPGKERELVAAISSGGDSTHYADDVKGRFTISRDNAENTMYLQMKSLKPEDTAVYVCNARGCRDFHNPQALCVLRDYWGQGTQVTVSS | 0.0075 | – |
| M044 (VHH) VHH: QVQVVESGGGFVQAGGSLRLSCAASTPIISIAYMGWYRQISEKERQLVATINSGGKTYYADSVKGRFTISRDNAKNTLYLQMNMLKPEDTGMYYCAASNKDYNDYDPDWGQGTQVTVSS | 0.0083 | – |
| M050 (VHH) VHH: EVQLQESGGGLVQAGGSLRLSCAASGAVSSINAMGWYRQTPEKVRKLVATMGSGGNTYYADSVKGRFTISRDYAKNTVALQMNNLIPEDTAVYYCAADKFGADIHEVDYWGKGTLVTVSS | 0.0099 | – |
| M119 (VHH) VHH: EVQLVESGGGLVQPGGSLRLSCVASGSDLSFDAMGWYRQFSATVRERQLVVATSRDGRIYYGDSVKGRFTASRDNLKNSVDLEMNNLKPEDTAIYYCAAGDDPKNYDWGPGTQVTVSS | 0.0071 | – |
| M224 (VHH) VHH: QVQLVESGGGLVQPGGSLRLSCAASGFTFHYYAIGWFRQAPGKEREGVSCISSSGDSTWFSDSVKGRFTVSRDNAKNIVHLQMNNLKPEDTAVYYCAGTTRSGYVCYDAEPYDSWGQGTQVTVSS | 0.0074 | – |
| M191 (VHH) VHH: QVQLVESGGGLVQAGGSLRLSCAASASMGSISNMGWYRQAPGKERGNERNLVATIGSDGRTYYADSVKGRFTISRDNVKNTMILQMNFLKPEDTAMYYCAVEDRQRPGTENYYWGQGTQVTVSS | 0.0074 | – |
| M010 (VHH) VHH: QVQLVESGGGLVQAGGSLRLSCAASGSVSSINAMGWYRQGTGEVRKLVATMGSGGNTYYADSVKGRFFITRDYSKNTVSLQMNNLTPEDSATYYCAADRFGASIHEVDYWGKGTLVTVSS | 0.007 | – |
| M001 (VHH) VHH: EVQLVESGGGLVQAGGSLRLSCAASGSIFNINAMGWYRQAPGKEWERELVATISSSNSDNTYYKDSVKGRFTISTNTAKNTWYLQMNSLKPEDTAMYYCAAENYDRKDRYWGQGTQVTVSS | 0.0184 | – |
| M003 (VHH) VHH: QVQLVESGGGLVQAGGSLRLSCTASGNIFSINAMGWYRQPPGKEWERELVATISSTNSDNTYYKESVKGRFTISTNTAKNTWYLQMNSLKPEDTAMYYCAAENFDRKDRYWAQGTQVTVSS | 0.0104 | – |
| M137 (VHH) VHH: QVQLVESGGGLVQAGGSLSLSCAASGSLSSINAMGWYRQLPEMRQLVATMGSDGKTYYADSVKGRFTISRDYAKYTVSLQMNNLRPEDTAIYYCAADRFGAPIHDVDYWGKGTLVTVSV | 0.0087 | – |
| YP218-IgG4 (antibody, from another filing, V domains shown) VH: QQQLEESGGGLVKPEGSLTLTCKASGFDLGFYFYACWVRQAPGKGLEWIACIYTAGSGSTYYASWAKGRFTISKASSTTVTLQMTSLAAADTATYFCARSTANTRSTYYLNLWGPGTLVTVSS VL: DVVMTQTPASVSEPVGGTVTIKCQASQRISSYLSWYQQKPGQRPKLLIFGASTLASGVPSRFKGSGSGTEYTLTISDLECADAATYYCQSYAYFDSNNWHAFGGGTEVVVRT | – | Kd (MSLN·His protein (human)): 3.1 nM; koff (MSLN·His protein (human)): 0.000123 s⁻¹; kon (MSLN·His protein (human)): 40200 M⁻¹ s⁻¹; EC50 [2]: 4.24 nM; EC50 [3]: 6.96 nM; EC50 [4]: 2.44 nM |
| M143 (VHH) VHH: EVQLVESGGGLVQAGGSLRLSCSASEKTFSIKYMGYYRQGPGIERKLVATIDTDGKTWYADSVKGRFTISRENGENEIGLEMNRLKPEDTAMYYCAGETGTYPKPEYWGQGTQVTVSS | 0.0085 | – |
| M132 (VHH) VHH: QVQLVESGGGLVQAGGSLSLSCVASGDAFSFDAMGWYRQFSGKVNERQLVVATSRDGRTAYGERVKGRFTASRDNSKNTLSLVMNNLQVEDTAIYYCAAGDDPKDYYWGQGTQVTVSS | 0.007 | – |
